B1: [125I]I-DARPin 9_29 (designed binder)
chain: MDLGKKLLEAARAGQDDEVRILMANGADVNAHDFYGITPLHLAANFGHLEIVEVLLKHGADVNAFDYDNTPLHLAADAGHLEIVEVLLKYGADVNASDRDGHTPLHLAAREGHLEIVEVLLKNGADVNAQDKFGKTAFDISIDNGNEDLAEILQKLAAALE
modifications: iodine-125 label attached to tyrosine (direct radioiodination)
notes: designed ankyrin repeat protein 9_29 against HER2; also called radioiodinated DARPin 9_29; source: E. coli BL21(DE3), purified (HisTrap HP, MonoQ); directly radioiodinated with chloramine T, purified on NAP-5; not shown: His6, C-terminal, kept
B2: [99mTc]Tc(CO)3-DARPin 9_29 (designed binder)
chain: B1 chain
modifications: [99mTc]Tc(CO)3 chelated by the C-terminal hexahistidine tag
notes: designed ankyrin repeat protein 9_29 against HER2; also called 99mTc(CO)3-DARPin 9_29; [99mTc]Tc-DARPin 9_29; source: E. coli BL21(DE3), purified (HisTrap HP, MonoQ); labelled with technetium-99m tricarbonyl, purified on NAP-5; not shown: His6, C-terminal, kept

Molecular target: T1, human epidermal growth factor receptor 2 (HER2) (human (endogenous in SKOV-3, BT474, …, UniProt P04626 23-1255))
T1 construct: human epidermal growth factor receptor 2 (HER2), endogenous on the cell lines SKOV-3, BT474 and DU145; also called HER2 receptor; source: endogenous, on living SKOV-3, BT474 and DU145 cells
Experiment: radioligand binding; LigandTracer, real-time association and dissociation on living SKOV-3 cells at room temperature; radioconjugate at 1, 4 and 8 nM; TraceDrawer fit with a 1:2 binding model
Details: one partner purified

Binder	KD of the strongest interaction (1:2 binding model)	KD of the weaker interaction (1:2 binding model)
B1	0.362 ± 0.13 nM	7.7 ± 2.8 nM
B2	0.439 ± 0.156 nM	9.1 ± 2.7 nM

— article PMC6011117, “Comparative Evaluation of Radioiodine and Technetium-Labeled DARPin 9_29 for Radionuclide Molecular Imaging of HER2 Expression in Malignant Tumors” (Contrast Media & Molecular Imaging, 2018)
